Experimental data: article PMC2922993

Key:
[1] = biological target: inhibitor of growth 2 (ING2) PHD finger; test: ITC
[2] = biological target: JMJD2A double tudor domain (UniProt O75164); test: ITC
[3] = biological target: RAG2 PHD finger, 414-487 (UniProt P21784); test: ITC with soluble peptides; details: reference: unphosphorylated H3K4me3 peptide
[4] = biological target: ING2 PHD finger (UniProt Q9H160); test: ITC with soluble peptides; details: reference: H3K4me3 peptide; sites T3

Sequence of JMJD2A double tudor domain (O75164 895-1011): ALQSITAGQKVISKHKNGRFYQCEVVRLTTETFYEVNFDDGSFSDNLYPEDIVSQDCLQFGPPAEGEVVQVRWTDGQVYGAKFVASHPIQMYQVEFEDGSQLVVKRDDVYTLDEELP

Substance: H3K4me3T6ph peptide (ITC)
- Kd [1]: 19.9 µM
- Kd [2]: 1.8 µM

Substance: histone H3 (from UniProt P68431) H3K4me3 peptide with T3ph
- KD ([3]; sites T3): lost; reference 17.8
- KD [4]: lost; reference 0.98

Substance: histone H3 (from UniProt P68431) H3K4me3 peptide with T6ph
- KD ([3]; sites T6): lost; reference 17.8
